Data on one molecule can be found in US12129308.

The test deals with Aggrecan. In words: competition ELISA (CAP) on Aggrecan; competitor not stated.

B1: C010100626 (bispecific antibody, part only; not given: albumin binder and linker, not shown: small tags and cut ends)
chain, part: EVQLVESGGGLVQPGGSLRLSCAASGSTFIINVVRWYRRAPGKQRELVATISSGGNANYVDSVRGRFTISRDNSKNTVYLQMNSLRPEDTAVYYCNVPTTHYGGVYYGPYWGQGTLVTVSSEVQLVESGGGLVQPGGSLRLSCAASGSTFIINVVRWYRRAPGKQRELVATISSGGNANYVDSVRGRFTISRDNSKNTVYLQMNSLRPEDTAVYYCNVPTTHYGGVYYGPYWGQGTLVTVSS
B1: the IC50 is 0.87 nM.
